From IntAct's records for PubMed 19490898

B1: Ras-related protein Rab-9A (Canis familiaris (dog)), P24408 (parent)
chain: MAGKSSLFKVILLGDGGVGKSSLMNRYVTNKFDTQLFHTIGVEFLNKDLEVDGHFVTMQIWDTAGQERFRSLRTPFYRGSDCCLLTFSVDDSQSFQNLSNWKKEFIYYADVKEPESFPFVILGNKIDISERQVSTEEAQAWCRDNGDYPYFETSAKDATNVAAAFEEAVRRVLATEDRSDHLIQTDTVSLHRKPKPSSSCC

Variants of: B1
Details: with rhbt3_human RHOBTB3, O94955
Sequence of rhbt3_human RHOBTB3, O94955 (O94955 whole entry): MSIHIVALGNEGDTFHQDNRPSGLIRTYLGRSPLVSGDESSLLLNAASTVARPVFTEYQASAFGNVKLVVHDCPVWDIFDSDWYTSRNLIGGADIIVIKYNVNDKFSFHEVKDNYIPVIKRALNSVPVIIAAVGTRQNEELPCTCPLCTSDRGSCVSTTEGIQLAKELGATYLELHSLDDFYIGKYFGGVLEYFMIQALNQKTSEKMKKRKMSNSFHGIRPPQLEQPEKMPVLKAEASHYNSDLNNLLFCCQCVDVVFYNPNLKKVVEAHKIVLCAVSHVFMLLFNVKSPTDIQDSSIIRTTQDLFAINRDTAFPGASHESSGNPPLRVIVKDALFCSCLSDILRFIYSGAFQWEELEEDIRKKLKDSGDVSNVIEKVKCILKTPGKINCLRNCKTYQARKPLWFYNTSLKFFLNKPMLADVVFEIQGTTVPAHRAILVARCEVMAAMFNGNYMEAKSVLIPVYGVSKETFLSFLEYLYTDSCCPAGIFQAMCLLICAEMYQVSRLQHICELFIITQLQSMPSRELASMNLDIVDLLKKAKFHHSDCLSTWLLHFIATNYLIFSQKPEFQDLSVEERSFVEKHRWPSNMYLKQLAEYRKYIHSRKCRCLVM

Row | effect of a mutation on the interaction | Variant
1 | decreasing interaction | S21N
